Where “and” joins values, the source holds several entries; their conditions need not be identical. Identical values can stand only once.

The series deals with the molecule itself. As to the kind of experiment: native gel or EMSA; recombinant protein incubated with tracer IV (0.15-10 uM) or DMSO at room temperature, native PAGE on 3%-12% bis-tris gel; bands seen by in-gel luminescence (Nluc substrate), colloidal blue staining and western blot; no FBP. On the technique in general: A gel shift assay detects complexes by their altered migration in electrophoresis.

B1: liver isoform of pyruvate kinase (PKL), wild type, recombinant (enzyme)
chain: not shown
notes: Pyruvate kinase, liver isoform (PKL), human; The same molecule is used for the native PAGE protein and for the crystallised protein; Construct details are probably in the Supporting Information; also called PKLwt; source: recombinant
On to B1, for which the stoichiometry N (commonly a count of units in the complex or per binding partner) was determined as 4.

B2: PKL-Nluc fusion, nanoluciferase fused to the N-terminus of PKL, recombinant (enzyme)
chain: not shown
notes: Pyruvate kinase, liver isoform (PKL), human; The bands were detected by in-gel luminescence of the Nluc part; source: recombinant, expressed and purified; not shown: Nluc, N-terminal, kept
Turning to B2, the “stoichiometry N” value was 4 and 2.

Values taken from publication PMC12518693, “Potent Fluorescent Probe for Target‐Engagement Studies of Allosteric Pyruvate Kinase Modulators” (Angewandte Chemie (International Ed. in English), 2025).
